Data as given in patent publication US20230365705A1 (DYNAMICURE BIOTECHNOLOGY, published 2023).
Values belong to the binder of their own block, whether it stands above or below them.

Experiments:
[1] = target: T1, Human CD93 on cells (human CD93 expressing CHO cells; HUVEC, U937 and KG1a cells) (human, UniProt Q9NPY3 22-652); experiment: flow cytometry, CHO cells overexpressing human CD93, antibody 0.01ug, mIgG1 as control, APC-A
T1 construct: whole, on cells; also called hCD93 expressing CHO cells; hCD93 CHO cells
T1 sequence (looked up): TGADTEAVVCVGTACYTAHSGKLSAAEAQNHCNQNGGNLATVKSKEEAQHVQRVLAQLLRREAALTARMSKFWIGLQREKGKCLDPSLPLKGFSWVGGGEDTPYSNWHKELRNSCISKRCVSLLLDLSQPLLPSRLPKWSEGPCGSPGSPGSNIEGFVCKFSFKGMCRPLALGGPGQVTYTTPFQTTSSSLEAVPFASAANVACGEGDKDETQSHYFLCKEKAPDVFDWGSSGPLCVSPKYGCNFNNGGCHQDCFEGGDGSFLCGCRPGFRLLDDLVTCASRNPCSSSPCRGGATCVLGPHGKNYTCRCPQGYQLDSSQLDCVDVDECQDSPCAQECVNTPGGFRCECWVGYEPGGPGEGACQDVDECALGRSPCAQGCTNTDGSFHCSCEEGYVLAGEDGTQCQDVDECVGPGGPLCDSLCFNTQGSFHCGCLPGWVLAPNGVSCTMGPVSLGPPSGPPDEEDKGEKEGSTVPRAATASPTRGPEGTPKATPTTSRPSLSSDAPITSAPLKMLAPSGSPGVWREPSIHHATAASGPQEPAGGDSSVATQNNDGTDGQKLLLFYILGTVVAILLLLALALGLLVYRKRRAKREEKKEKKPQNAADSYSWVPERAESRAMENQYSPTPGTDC

[2] = target: T1, Human CD93 on cells (human CD93 …); experiment: flow cytometry, CHO-hCD93 cells, APC-A
[3] = target: T2, Human CD93 recombinant protein (Sino Biological Inc, Catalog #12589-H08H) (human, UniProt Q9NPY3 22-580); experiment: BLI (Octet), human CD93; sheet prints Anti-Penta-HIS(HIS1K) biosensor
T2 construct: Biotinylated (EZ-LINK NHS-PEG4 biotin) in the BLI assays; also called hCD93; His-tagged human CD93
T2 sequence (looked up): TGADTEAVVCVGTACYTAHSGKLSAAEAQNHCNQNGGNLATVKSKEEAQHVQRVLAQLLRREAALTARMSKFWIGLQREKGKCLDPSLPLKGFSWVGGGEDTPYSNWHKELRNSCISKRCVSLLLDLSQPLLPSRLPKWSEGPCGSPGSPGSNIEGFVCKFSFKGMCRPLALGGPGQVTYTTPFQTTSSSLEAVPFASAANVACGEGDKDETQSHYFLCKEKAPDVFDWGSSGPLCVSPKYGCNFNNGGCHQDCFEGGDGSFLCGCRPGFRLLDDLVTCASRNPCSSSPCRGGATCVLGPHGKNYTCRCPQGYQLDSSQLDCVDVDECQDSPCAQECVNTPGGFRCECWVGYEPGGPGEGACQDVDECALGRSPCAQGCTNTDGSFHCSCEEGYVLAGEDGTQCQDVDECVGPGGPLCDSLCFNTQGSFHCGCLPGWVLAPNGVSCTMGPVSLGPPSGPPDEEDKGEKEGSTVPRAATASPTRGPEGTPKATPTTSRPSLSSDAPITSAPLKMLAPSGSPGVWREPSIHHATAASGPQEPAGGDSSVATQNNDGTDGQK

[4] = target: T1, Human CD93 on cells (human CD93 …); experiment: flow cytometry blocking assay, CHO-hCD93 cells, antibody 50 ug/ml then MMRN2 0.5 ug/ml, APC-A
Description: (§1) After incubation, the cells were washed with FACS buffer and incubated with anti-His conjugated APC or streptavidin conjugated APC at a ratio of 1:500 for 30 minutes at 4° C. After washing with FACS buffer twice, the samples were analyzed and data acquired in NovoCyte Flow.

[5] = target: T1, Human CD93 on cells (human CD93 …); experiment: flow cytometry blocking assay, CHO-hCD93 cells, antibody 50 ug/ml then MMRN2 0.1 ug/ml, APC-A
Description: as §1

[6] = target: T2, Human CD93 recombinant protein (Sino …); experiment: ELISA, His-tagged human CD93 coated, OD450
Description: His-tagged human CD93 was coated onto a 96 well plate at 1 μg/mL in 1×PBS overnight at 4° C. The plate was washed with ELISA wash buffer (Boston BioProduct, Inc.) and the wells were blocked with ELISA blocking buffer for 1 hour at 37° C. […] The plate was washed with ELISA wash Buffer. […] The plate was washed with ELISA wash Buffer. HRP substrate was added for indirect detection of the antibodies binding to CD93.

B2: 10B1 (antibody, V domains shown)
VH: QVQLKQSGPGLVQPSQSLSITCTVSDFSLSSFGVNWVRQPPGKGLEWLGVIWSGGSTDYNVAFISRLSISKDNSKSQVFFKMNNLQADDTAIYYCARNWRYDGYFYAMDYWGQGTSVTVSS
VL: DIVMTQSQKFMSTSTGDRVSVTCKASQNVGTNVAWYQQKPGQSPKALIYSASYRFIGVPDRFTGSGSGTDFTLTITNVQSEDLAEYFCQQYNRNPITFGSGTKLEIK
notes: Mouse hybridoma monoclonal antibody
- M3 gate, % of cells [2]: 97.3%
- Kd [3]: 0.904 nM
- koff [3]: 0.000116 s⁻¹
- kon [3]: 128000 M⁻¹ s⁻¹
- M3 gate, % of cells positive for MMRN2 after the antibody [4]: 47.2%
- M3 gate, % of cells positive for MMRN2 after the antibody [5]: 29.4%

B3: 17B10 (hybridoma) (antibody, V domains shown)
VH: QVQLQQSGPELVKPGASVKISCKASGYAFSSYWLNWVKQRPGKGLEWFGRIYPGDGDTDYNGKFKGKATLTADKSSSTAYMQLRSLTSEDSAVYFCVRGDGYWAMDYWGQGTSVTVSS
VL: DIVMTQAAFSNPVTLGTSASISCRFSKSLLHSNGITYLYWYLQKPGQSPQLLIYQMSNLASGVPDRFSSSGSGTDFTLRISRVEAEDVGVYYCAQNLELPWTFGGGTKLEIK
notes: as for B2
- EC50 [6]: 0.153 nM

Second part, the binder after the results:

- M2 gate, % of cells [1]: 96.7%
B1: humanized 17B10 H3L2 (antibody, mouse IgG1, V domains shown)
VH: QVQLVQSGPEVKKPGESLKISCKASGYAFSSYWLNWVRQMPGKGLEWMGRIYPGDGDTDYNGKFKGQVTISADKSSGTAYLQLSSLKASDTAVYFCVRGDGYWAMDYWGQGTLVTVSS
VL: DIVMTQTPLSLPVTPGEPASISCRFSQSLLHSNGITYLYWYLQKPGQSPQLLIYTMSNLASGVPDRFSGSGSGTDFTLKISRVEAEDVGVYYCAQNLELPWTFGGGTKLEIK
notes: Chimeric Fc: human CH1, mouse IgG1 CH2 and CH3

- EC50 [6]: 0.0167 nM
B4: 17B10-hIgG1 (recombinant parental 17B10-hFc) (antibody, V domains shown)
VH: QVQLQQSGPELVKPGASVKISCKASGYAFSSYWLNWVKQRPGKGLEWFGRIYPGDGDTDYNGKFKGKATLTADKSSSTAYMQLRSLTSEDSAVYFCVRGDGYWAMDYWGQGTSVTVSS
VL: DIVMTQAAFSNPVTLGTSASISCRFSKSLLHSNGITYLYWYLQKPGQSPQLLIYQMSNLASGVPDRFSSSGSGTDFTLRISRVEAEDVGVYYCAQNLELPWTFGGGTKLEIK
notes: also called recombinant parental 17B10 with the human Fc; 17B10 chimeric
